Experiments:
FcγRIIb [1] = molecular target: T1, FcγRIIb (human, UniProt P31994 43-217); test: SPR (Biacore), relative binding; compared with GpH7-A5/GpH7-B12/GpL16-k0
T1 construct: extracellular domain; for crystallography expressed with Kifunesine and trimmed with Endo F1; also called FcgRIIb; FcgR2b; not shown: His tag attached to the C terminus
T1 sequence (looked up): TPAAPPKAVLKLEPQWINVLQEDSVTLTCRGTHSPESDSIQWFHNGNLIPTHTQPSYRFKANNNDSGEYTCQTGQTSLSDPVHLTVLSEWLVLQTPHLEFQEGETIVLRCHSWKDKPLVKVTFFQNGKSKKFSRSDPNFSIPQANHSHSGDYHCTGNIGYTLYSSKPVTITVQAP
Description: (§1) Analysis of interaction between objective antibody and the FcγR was carried out using Biacore T100 (GE Healthcare). HBS-EP+ (GE Healthcare) was used as the running buffer, and the measurement temperature was set to 25° C. Chips produced by immobilizing the antigen peptide by the amine coupling method to a Series S Sencor Chip CM5 (GE Healthcare), or alternatively, chips produced by allowing preliminarily biotinylated antigen peptides to interact with and immobilize onto a Series S Sensor Chip SA (certified) (GE Healthcare) were used. Antibodies of interest were captured onto an antigen peptide-immobilized chip, and allowed to interact to each FcγR diluted with running buffer. To regenerate and repeatedly use the chip, the antibodies captured on the chip were washed off by reacting 10 mM glycine-HCl, pH 1.5.

FcγRIIb [2] = molecular target: T1, FcγRIIb; test: SPR (Biacore), relative binding; compared with GpH7-A48/GpH7-B3/GpL16-k0
Description: as §1

FcγRIIIa [3] = molecular target: T2, FcγRIIIa (human, UniProt P08637 17-208); test: SPR (Biacore); KD of GpH7-TA7/GpH7-B78/GpL16-k0 for FcγRIIIa divided by the KD of this antibody (the reference itself)
T2 construct: extracellular domain; The protein is soluble, His-tagged, and was expressed in FreeStyle293 cells; also called FcgRIIIa; CD16A; not shown: His tag attached to the C terminus
Description: (§2) Then, K334G was also assessed in the same manner. GpH7-TA40 (SEQ ID NO: 47) resulting from the introduction of K334G into GpH7-TA7 was constructed, and expressed and prepared in combination with GpH7-B78 according to the method described in Reference Example 1. Furthermore, GpH7-TA50 (SEQ ID NO: 48) resulting from the introduction of K334G into GpH7-B78 was constructed, and expressed and prepared in combination with GpH7-TA7 according to the method described in Reference Example 1. To assess the effect of combinations with K334G, the prepared antibodies were compared for the FcγRIIIa binding according to the method described in Reference Example 2 (Table 18).
as §1, with “To regenerate and repeatedly use the chip, the antibodies captured on the chip were washed off by reacting 10 mM glycine-HCl, pH 1.5.” left out

FcγRIIIa [4] = molecular target: T2, FcγRIIIa; test: SPR (Biacore T100); antibody captured on an antigen peptide chip, FcγRIIIa as analyte; 1:1 Langmuir kinetic fit
Description: as §2, §1

T2 sequence (P08637 17-208): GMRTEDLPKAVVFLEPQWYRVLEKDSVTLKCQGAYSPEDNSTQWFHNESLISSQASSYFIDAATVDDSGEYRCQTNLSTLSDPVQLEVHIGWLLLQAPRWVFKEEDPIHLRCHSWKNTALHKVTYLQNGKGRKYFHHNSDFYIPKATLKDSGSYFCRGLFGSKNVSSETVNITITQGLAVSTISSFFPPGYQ

B1: GpH7-A5/GpH7-B41/GpL16-k0 (antibody, human IgG1, kappa)
heavy 1: not shown
heavy 2: QVQLVQSGAEVKKPGASVTVSCKASGYTFTDYEMHWIRQPPGEGLEWIGAIDPKTGDTAYSESFQDRVTLTADKSTSTAYMELSSLTSEDTAVYYCTRFYSYTYWGQGTLVTVSSASTKGPSVFPLAPSSKSTSGGTAALGCLVKDYFPEPVTVSWNSGALTSGVHTFPAVLQSSGLYSLSSVVTVPSSSLGTQTYICNVNHKPSNTKVDKKVEPKSCDKTHTCPPCPAPEDLGGPSVFLFPPKPKDTLMISRTPEVTCVVVDVSHEDPEVKFNWYVDGVEVHNAKTKPREEQYNSTYRVVSVLTVLHQDWLNGKEYKCKVSNKALRAPIEKTISKAKGQPREPQVYTLPPSRDELTKNQVSLTCLVKGFYPSDIAVEWESNGQPENNYKTTPPVLDSDGSFFLYSKLTVDKSRWQQGNVFSCSVMHEALHNHYTQESLSLSP
light: DIVMTQSPLSLPVTPGEPASISCQASESLVHSNRNTYLHWYLQKPGQSPQLLIYKVSNRFSGVPDRFSGSGSGTDFTLKISRVEAEDVGVYYCSQNTHVPPTFGQGTKVEIERTVAAPSVFIFPPSDEQLKSGTASVVCLLNNFYPREAKVQWKVDNALQSGNSQESVTEQDSKDSTYSLSSTLTLSKADYEKHKVYACEVTHQGLSSPVTKSFNRGEC
notes: L234D and P329R in the same H chain
Does B1 bind (FcγRIIb [1])?
Result: binds

B2: GpH7-A45/GpH7-B3/GpL16-k0 (antibody, human IgG1, kappa)
heavy 1: QVQLVQSGAEVKKPGASVTVSCKASGYTFTDYEMHWIRQPPGEGLEWIGAIDPKTGDTAYSESFQDRVTLTADKSTSTAYMELSSLTSEDTAVYYCTRFYSYTYWGQGTLVTVSSASTKGPSVFPLAPSSKSTSGGTAALGCLVKDYFPEPVTVSWNSGALTSGVHTFPAVLQSSGLYSLSSVVTVPSSSLGTQTYICNVNHKPSNTKVDKKVEPKSCDKTHTCPPCPAPELLGAPSVFLFPPKPKDTLMISRTPEVTCVVVDVSHEDPEVKFNWYVDGVEVHNAKTKPREEQYNSTYRVVSVLTVLHQDWLNGKEYKCKVSNKALRAPIEKTISKAKGQPREPQVYTLPPSRKELTKNQVSLTCLVKGFYPSDIAVEWESNGQPENNYKTTPPVLDSDGSFFLYSKLTVDKSRWQQGNVFSCSVMHEALHNRYTQKSLSLSP
heavy 2: not shown
light: DIVMTQSPLSLPVTPGEPASISCQASESLVHSNRNTYLHWYLQKPGQSPQLLIYKVSNRFSGVPDRFSGSGSGTDFTLKISRVEAEDVGVYYCSQNTHVPPTFGQGTKVEIERTVAAPSVFIFPPSDEQLKSGTASVVCLLNNFYPREAKVQWKVDNALQSGNSQESVTEQDSKDSTYSLSSTLTLSKADYEKHKVYACEVTHQGLSSPVTKSFNRGEC
notes: G237A and P329R in the same H chain
Does B2 bind (FcγRIIb [2])?
Result: binds

B3: GpH7-TA7/GpH7-B78/GpL16-k0 (antibody, human IgG1, kappa)
heavy 1: QVQLVQSGAEVKKPGASVTVSCKASGYTFTDYEMHWIRQPPGEGLEWIGAIDPKTGDTAYSESFQDRVTLTADKSTSTAYMELSSLTSEDTAVYYCTRFYSYTYWGQGTLVTVSSASTKGPSVFPLAPSSKSTSGGTAALGCLVKDYFPEPVTVSWNSGALTSGVHTFPAVLQSSGLYSLSSVVTVPSSSLGTQTYICNVNHKPSNTKVDKKVEPKSCDKTHTCPPCPAPEYLWGPSVFLFPPKPKDTLMISRTPEVTCVVVDVSHEDPEVKFNWYVDGVEVHNAKTKPREEQYNATYRVVSVLTVLHQDWLNGKEYKCKVSNKALPAPIEKTISKAKGQPREPQVYTLPPSRKELTKNQVSLTCLVKGFYPSDIAVEWESNGQPENNYKTTPPVLDSDGSFFLYSKLTVDKSRWQQGNVFSCSVMHEALHNRYTQKSLSLSP
heavy 2: QVQLVQSGAEVKKPGASVTVSCKASGYTFTDYEMHWIRQPPGEGLEWIGAIDPKTGDTAYSESFQDRVTLTADKSTSTAYMELSSLTSEDTAVYYCTRFYSYTYWGQGTLVTVSSASTKGPSVFPLAPSSKSTSGGTAALGCLVKDYFPEPVTVSWNSGALTSGVHTFPAVLQSSGLYSLSSVVTVPSSSLGTQTYICNVNHKPSNTKVDKKVEPKSCDKTHTCPPCPAPELLGGPDVFLFPPKPKDTLMISRTPEVTCVVVDVSHEDPEVKFNWYVDGVEVHNAKTKPREEQYNSTYRVVSVLTVLHQDWLNGKEYKCKVSNKALPLPEEKTISKAKGQPREPQVYTLPPSRDELTKNQVSLTCLVKGFYPSDIAVEWESNGQPENNYKTTPPVLDSDGSFFLYSKLTVDKSRWQQGNVFSCSVMHEALHNHYTQESLSLSP
light: DIVMTQSPLSLPVTPGEPASISCQASESLVHSNRNTYLHWYLQKPGQSPQLLIYKVSNRFSGVPDRFSGSGSGTDFTLKISRVEAEDVGVYYCSQNTHVPPTFGQGTKVEIERTVAAPSVFIFPPSDEQLKSGTASVVCLLNNFYPREAKVQWKVDNALQSGNSQESVTEQDSKDSTYSLSSTLTLSKADYEKHKVYACEVTHQGLSSPVTKSFNRGEC
notes: Heterodimerized anti-glypican-3 IgG1 antibody with two different H chains and a common L chain; also called TA7/B78
B3 was tested. Which KD ratio (FcγRIIIa [3]) did it give?
Its KD ratio is 1.

What about the Kd (FcγRIIIa [4]) of the same binder?
Its Kd is 4.1 nM.
